According to PMC11417369, “DNA sequence and chromatin differentiate sequence-specific transcription factor binding in the human malaria parasite Plasmodium falciparum”:

T1: PF3D7_0420300 D1 (Plasmodium falciparum, UniProt Q8I1N6 1956-2015)
T1 sequence: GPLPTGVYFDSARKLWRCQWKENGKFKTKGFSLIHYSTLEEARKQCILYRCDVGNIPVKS


Target: T1, PF3D7_0420300 D1
Assay: gcPBM; about 25 ug protein; PBS, 1% milk, 0.2 mg/ml BSA, salmon testes DNA, 0.03% Triton X-100
Details: tags: N-terminal GST (pGEX-4T-1), kept; label: surface-attached array probe

Row | Binder | binding signal
1 | CACACA_site2985 (dsDNA) DNA 1: AATATTTATAAAGACACACAAACAAAAAGGATAAAA DNA 2: TTTTATCCTTTTTGTTTGTGTGTCTTTATAAATATT | 9.84 ln median PBM intensity, better of two orientations
2 | CACACA_site377 (dsDNA) DNA 1: AGGTAGAAAAAAGACACACACATTATGTATATATAT DNA 2: ATATATATACATAATGTGTGTGTCTTTTTTCTACCT | 9.87 ln median PBM intensity, better of two orientations
3 | CACACA_site2570 (dsDNA) DNA 1: AAAAGATAATTATGCACACACACACCCCCACCCAAC DNA 2: GTTGGGTGGGGGTGTGTGTGTGCATAATTATCTTTT | 10.8 ln median PBM intensity, better of two orientations
4 | CACACA_site6753 (dsDNA) DNA 1: GAAGTAATTTCATATACACACATATACATACATACA DNA 2: TGTATGTATGTATATGTGTGTATATGAAATTACTTC | 9.62 ln median PBM intensity, better of two orientations
5 | CACACA_site3424 (dsDNA) DNA 1: GATGAGGACAAACACACACACATAAGTTGATACATA DNA 2: TATGTATCAACTTATGTGTGTGTGTTTGTCCTCATC | 9.89 ln median PBM intensity, better of two orientations
6 | CACACA_site7096 (dsDNA) DNA 1: TACCTATATACATACACACACATATAACCAATGTAG DNA 2: CTACATTGGTTATATGTGTGTGTATGTATATAGGTA | 9.88 ln median PBM intensity, better of two orientations
7 | CACACA_site8016 (dsDNA) DNA 1: TTAGGTAGAAAAAAGACACACACATTATATATATAT DNA 2: ATATATATATAATGTGTGTGTCTTTTTTCTACCTAA | 9.94 ln median PBM intensity, better of two orientations
8 | CACACA_site1962 (dsDNA) DNA 1: TTTTTAACATATCATACACACAACAACTTTTTATAG DNA 2: CTATAAAAAGTTGTTGTGTGTATGATATGTTAAAAA | 9.54 ln median PBM intensity, better of two orientations
9 | CACACA_site1517 (dsDNA) DNA 1: TATGAAATTATAATTACACACAGGAAAATAAAATGT DNA 2: ACATTTTATTTTCCTGTGTGTAATTATAATTTCATA | 9.83 ln median PBM intensity, better of two orientations
10 | CACACA_site2478 (dsDNA) DNA 1: TAAACAGACATATAAACACACATATAAACCGACATA DNA 2: TATGTCGGTTTATATGTGTGTTTATATGTCTGTTTA | 9.92 ln median PBM intensity, better of two orientations
11 | CACACA_site337 (dsDNA) DNA 1: AGCAGACACCAACACACACACATATATATATATATA DNA 2: TATATATATATATATGTGTGTGTGTTGGTGTCTGCT | 9.86 ln median PBM intensity, better of two orientations
12 | CACACA_site5943 (dsDNA) DNA 1: AAATAAATATATAATACACACAAAAATATAAAATGG DNA 2: CCATTTTATATTTTTGTGTGTATTATATATTTATTT | 9.84 ln median PBM intensity, better of two orientations
13 | CACACA_site3328 (dsDNA) DNA 1: TGTATTTATAGCAATACACACATAACAATAAATATA DNA 2: TATATTTATTGTTATGTGTGTATTGCTATAAATACA | 9.56 ln median PBM intensity, better of two orientations
14 | CACACA_site2379 (dsDNA) DNA 1: ACATAGCAATGTTTCACACACAAGAAAAAATACAAT DNA 2: ATTGTATTTTTTCTTGTGTGTGAAACATTGCTATGT | 9.85 ln median PBM intensity, better of two orientations
15 | CACACA_site4748 (dsDNA) DNA 1: GCCTTTTAGTATTTCACACACGTAAATGAGTATATC DNA 2: GATATACTCATTTACGTGTGTGAAATACTAAAAGGC | 9.63 ln median PBM intensity, better of two orientations
16 | CACACA_site5414 (dsDNA) DNA 1: AACAAGTTGCATGGTGCACACATGTATTTATATCTA DNA 2: TAGATATAAATACATGTGTGCACCATGCAACTTGTT | 9.53 ln median PBM intensity, better of two orientations
17 | CACACA_site4960 (dsDNA) DNA 1: TTAATAACAAAATAAACACACATATATAAATACCCA DNA 2: TGGGTATTTATATATGTGTGTTTATTTTGTTATTAA | 9.9 ln median PBM intensity, better of two orientations
18 | CACACA_site3513 (dsDNA) DNA 1: CAATTACGCAGGAATGCACACAATAATAAAAAAAAT DNA 2: ATTTTTTTTATTATTGTGTGCATTCCTGCGTAATTG | 9.51 ln median PBM intensity, better of two orientations
19 | CACACA_site2997 (dsDNA) DNA 1: CATAATTATGCAATTGCACACAACTATCATTTTTTT DNA 2: AAAAAAATGATAGTTGTGTGCAATTGCATAATTATG | 9.61 ln median PBM intensity, better of two orientations
20 | CACACA_site6321 (dsDNA) DNA 1: AAATTAATTAAATATACACACATATATAGATATATA DNA 2: TATATATCTATATATGTGTGTATATTTAATTAATTT | 9.5 ln median PBM intensity, better of two orientations
21 | CACACA_site4786 (dsDNA) DNA 1: AATATACACCCGTGTACACAAATATTTACAAAACGT DNA 2: ACGTTTTGTAAATATTTGTGTACACGGGTGTATATT | 9.51 ln median PBM intensity, better of two orientations
22 | CACACA_site8689 (dsDNA) DNA 1: AAAAAAAAAACACGCGCACACACACCCACCCACCCA DNA 2: TGGGTGGGTGGGTGTGTGTGCGCGTGTTTTTTTTTT | 10.7 ln median PBM intensity, better of two orientations

Row | Binder | binding signal
23 | CACACA_site7392 (dsDNA) DNA 1: GGTTCATATCTTAACACACACATACATATTATAGAT DNA 2: ATCTATAATATGTATGTGTGTGTTAAGATATGAACC | 9.92 ln median PBM intensity, better of two orientations
24 | CACACA_site407 (dsDNA) DNA 1: ATATTATATTATATAACACACATTTTTCATAACACT DNA 2: AGTGTTATGAAAAATGTGTGTTATATAATATAATAT | 9.58 ln median PBM intensity, better of two orientations
25 | CACACA_site2768 (dsDNA) DNA 1: TAGAACAAATAAAACACACACATATATATATATATG DNA 2: CATATATATATATATGTGTGTGTTTTATTTGTTCTA | 9.9 ln median PBM intensity, better of two orientations
26 | CACACA_site6268 (dsDNA) DNA 1: AACATATTTATATACACACACATATTTATATGAAAT DNA 2: ATTTCATATAAATATGTGTGTGTATATAAATATGTT | 9.85 ln median PBM intensity, better of two orientations
27 | CACACA_site8576 (dsDNA) DNA 1: TTCTTACATAAAATATCACACACATAAAAAAACAAT DNA 2: ATTGTTTTTTTATGTGTGTGATATTTTATGTAAGAA | 9.93 ln median PBM intensity, better of two orientations
28 | CACACA_site8191 (dsDNA) DNA 1: TATTATATTATACATACACACCCATATAATATGTTT DNA 2: AAACATATTATATGGGTGTGTATGTATAATATAATA | 9.49 ln median PBM intensity, better of two orientations
29 | CACACA_site4213 (dsDNA) DNA 1: GGAATAGTAATATATACACACAAATACAGATATATA DNA 2: TATATATCTGTATTTGTGTGTATATATTACTATTCC | 9.83 ln median PBM intensity, better of two orientations
30 | CACACA_site478 (dsDNA) DNA 1: AAAAAAAAAAAAAAAACACACAAATCATAAATAAAT DNA 2: ATTTATTTATGATTTGTGTGTTTTTTTTTTTTTTTT | 9.63 ln median PBM intensity, better of two orientations
31 | CACACA_site7314 (dsDNA) DNA 1: CAATGTTAACATATTACACACATATGTATTTATAAC DNA 2: GTTATAAATACATATGTGTGTAATATGTTAACATTG | 9.55 ln median PBM intensity, better of two orientations
32 | CACACA_site1730 (dsDNA) DNA 1: AAAATTTTTTACTTTACACACATTTTGTATATTTTG DNA 2: CAAAATATACAAAATGTGTGTAAAGTAAAAAATTTT | 9.87 ln median PBM intensity, better of two orientations
33 | CACACA_site55 (dsDNA) DNA 1: CTCAATATTATTACTACACACAAATTAATATTTTCC DNA 2: GGAAAATATTAATTTGTGTGTAGTAATAATATTGAG | 9.54 ln median PBM intensity, better of two orientations
34 | CACACA_site2604 (dsDNA) DNA 1: GAAAATATTACATACACGCACACATTAATATATTTA DNA 2: TAAATATATTAATGTGTGCGTGTATGTAATATTTTC | 9.59 ln median PBM intensity, better of two orientations
35 | CACACA_site3334 (dsDNA) DNA 1: ATTTTATTTTTTCACACACACATATATATATATATA DNA 2: TATATATATATATATGTGTGTGTGAAAAAATAAAAT | 9.91 ln median PBM intensity, better of two orientations
36 | CACACA_site1529 (dsDNA) DNA 1: AACTATAAAAAAAATACACACATTACCAAAAATATA DNA 2: TATATTTTTGGTAATGTGTGTATTTTTTTTATAGTT | 9.86 ln median PBM intensity, better of two orientations
37 | CACACA_site2544 (dsDNA) DNA 1: TATTATTTATTATATGCACACATCGAACTATTATTT DNA 2: AAATAATAGTTCGATGTGTGCATATAATAAATAATA | 9.56 ln median PBM intensity, better of two orientations
38 | CACACA_site254 (dsDNA) DNA 1: TTTAATTATAAGATAACACACAAAAAAAATAAAATA DNA 2: TATTTTATTTTTTTTGTGTGTTATCTTATAATTAAA | 9.6 ln median PBM intensity, better of two orientations
39 | CACACA_site1453 (dsDNA) DNA 1: ATATTATGTGATTGTGCACACTGGAGATTTTTTTTA DNA 2: TAAAAAAAATCTCCAGTGTGCACAATCACATAATAT | 9.58 ln median PBM intensity, better of two orientations
40 | CACACA_site8579 (dsDNA) DNA 1: AATATTTATAAATTTACACACACACCGGTGAACATA DNA 2: TATGTTCACCGGTGTGTGTGTAAATTTATAAATATT | 9.89 ln median PBM intensity, better of two orientations
41 | CACACA_site3144 (dsDNA) DNA 1: ATAAAATATATGAAGACACACATAACATCATATTTT DNA 2: AAAATATGATGTTATGTGTGTCTTCATATATTTTAT | 9.52 ln median PBM intensity, better of two orientations
42 | CACACA_site9081 (dsDNA) DNA 1: TTTTACTAAATATATACACACATTATACATATATAT DNA 2: ATATATATGTATAATGTGTGTATATATTTAGTAAAA | 9.49 ln median PBM intensity, better of two orientations
43 | CACACA_site3507 (dsDNA) DNA 1: TATATAAACCCGTACACACACATATATGTATATATA DNA 2: TATATATACATATATGTGTGTGTACGGGTTTATATA | 9.93 ln median PBM intensity, better of two orientations
44 | CACACA_site8829 (dsDNA) DNA 1: TATGTAAAAAATTTAACACACACATATATATATATA DNA 2: TATATATATATATGTGTGTGTTAAATTTTTTACATA | 9.57 ln median PBM intensity, better of two orientations
